From patent publication US20230128075A1

How the values were obtained:
[1] = molecular target: HSP70 (antigen; source and nucleotide state not stated) (Homo sapiens (Human)) (UniProt P0DMV8); assay: Octet epitope binning, sandwich format on HSP70; table row N15F2-5 (named as competitor), column C92F3-5; the sheet does not say which of row and column was loaded first
[2] = molecular target: HSP70 (antigen; source and nucleotide state not stated) (Homo sapiens (Human)) (UniProt P0DMV8); assay: Octet epitope binning, sandwich format on HSP70; table row C92F3-5, column C92F3-5 (self pair)
[3] = molecular target: HSP70 (antigen; source and nucleotide state not stated) (Homo sapiens (Human)) (UniProt P0DMV8); assay: Octet epitope binning, sandwich format on HSP70; table row m77A (named as competitor), column C92F3-5; the sheet does not say which of row and column was loaded first
[4] = molecular target: HSP70 (antigen; source and nucleotide state not stated) (Homo sapiens (Human)) (UniProt P0DMV8); assay: Octet epitope binning, sandwich format on HSP70; table row N15F2-5, column N15F2-5 (self pair)
[5] = molecular target: HSP70 (antigen; source and nucleotide state not stated) (Homo sapiens (Human)) (UniProt P0DMV8); assay: Octet epitope binning, sandwich format on HSP70; table row m77A (named as competitor), column N15F2-5; the sheet does not say which of row and column was loaded first
[6] = molecular target: HSP70 (antigen; source and nucleotide state not stated) (Homo sapiens (Human)) (UniProt P0DMV8); assay: Octet epitope binning, sandwich format on HSP70; table row C92F3-5 (named as competitor), column N15F2-5; the sheet does not say which of row and column was loaded first

Sequence of HSP70 (antigen; source and nucleotide state not stated) (Homo sapiens (Human)) (P0DMV8 whole entry): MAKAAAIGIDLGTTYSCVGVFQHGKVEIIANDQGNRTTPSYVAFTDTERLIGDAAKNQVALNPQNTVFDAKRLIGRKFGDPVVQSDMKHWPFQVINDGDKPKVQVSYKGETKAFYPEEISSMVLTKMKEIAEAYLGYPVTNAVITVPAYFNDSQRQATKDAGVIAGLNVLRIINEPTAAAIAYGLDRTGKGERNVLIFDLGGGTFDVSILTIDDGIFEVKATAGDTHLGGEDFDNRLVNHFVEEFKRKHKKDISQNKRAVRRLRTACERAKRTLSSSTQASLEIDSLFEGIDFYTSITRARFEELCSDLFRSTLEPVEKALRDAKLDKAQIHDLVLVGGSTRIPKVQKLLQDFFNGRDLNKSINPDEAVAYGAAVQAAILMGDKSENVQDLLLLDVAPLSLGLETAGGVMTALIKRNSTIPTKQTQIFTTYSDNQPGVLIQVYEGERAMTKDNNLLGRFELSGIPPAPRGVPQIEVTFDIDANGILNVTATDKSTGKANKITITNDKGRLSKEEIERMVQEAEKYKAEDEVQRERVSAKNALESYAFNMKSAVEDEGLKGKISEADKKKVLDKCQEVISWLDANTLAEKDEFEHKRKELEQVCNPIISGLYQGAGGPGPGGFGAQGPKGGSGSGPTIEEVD

Substance	percent of maximal binding in the presence of the potentially competing antibody [1]	percent of maximal binding in the presence of the potentially competing antibody [2]	percent of maximal binding in the presence of the potentially competing antibody [3]	percent of maximal binding in the presence of the potentially competing antibody [4]	percent of maximal binding in the presence of the potentially competing antibody [5]	percent of maximal binding in the presence of the potentially competing antibody [6]
C92F3-5 (Fisher Scientific) (antibody)	0.492	0	0.714	–	–	–
N15F2-5 (Enzo Life Sciences) (antibody)	–	–	–	0	0.738	0.489
